Test system: Escherichia coli TOP10
Assay: shrunken log2 fold change of peptide-encoding DNA abundance (4.5 h post-induction vs induction); higher = less antimicrobial activity (less host growth inhibition)
Conditions: time post-induction: 4.5 h; library: site-saturation at positions 5, 18, 19, 20
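Also: peptides expressed intracellularly from a pBAD plasmid library in pooled LB shake-flask culture, induced with 0.3% L-arabinose, DNA abundance read by NGS, three biological replicates, DESeq2 with apeglm shrinkage.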

Sequence | shrunken log2 fold change
RRIRWRPPRLPRPRPRPLNIPRP | -0.211
RRIRIRPPRLPRPRPRPLIVPRP | -0.622
RRIRWRPPRLPRPRPRPLYRPRP | -0.552
RRIRIRPPRLPRPRPRPCWNPRP | -0.301
RRIRARPPRLPRPRPRPIKRPRP | 0.0415
RRIRARPPRLPRPRPRPQFTPRP | 0.0535
RRIRKRPPRLPRPRPRPIKLPRP | -0.243
RRIRTRPPRLPRPRPRPFERPRP | -0.0347
RRIRWRPPRLPRPRPRPFCFPRP | 0.449
RRIRTRPPRLPRPRPRPYNAPRP | -1.3
RRIRQRPPRLPRPRPRPDITPRP | -0.00487
RRIRQRPPRLPRPRPRPLMDPRP | 0.0125
RRIRQRPPRLPRPRPRPPNIPRP | -0.3
RRIRERPPRLPRPRPRPSVIPRP | -0.259
RRIRHRPPRLPRPRPRPRRKPRP | 0.0896
RRIRVRPPRLPRPRPRPNQFPRP | -0.349
RRIRKRPPRLPRPRPRPDAHPRP | 0.534
RRIRWRPPRLPRPRPRPCACPRP | 0.0874
RRIRNRPPRLPRPRPRPVQCPRP | -0.0226
RRIRCRPPRLPRPRPRPSTRPRP | -0.119
RRIRARPPRLPRPRPRPLPHPRP | 0.209
RRIRWRPPRLPRPRPRPNPMPRP | -0.176

Sequence | shrunken log2 fold change
RRIRMRPPRLPRPRPRPTTMPRP | 0.558
RRIRKRPPRLPRPRPRPMNFPRP | 0.18
RRIRGRPPRLPRPRPRPSQRPRP | 0.181
RRIRQRPPRLPRPRPRPLMEPRP | -0.17
RRIRNRPPRLPRPRPRPERCPRP | 0.0334
RRIRRRPPRLPRPRPRPITPPRP | 0.243
RRIRARPPRLPRPRPRPVREPRP | 1.01
RRIRTRPPRLPRPRPRPPAAPRP | 0.353
RRIRKRPPRLPRPRPRPFQLPRP | 0.0661
RRIRQRPPRLPRPRPRPWVGPRP | -0.0518
RRIRERPPRLPRPRPRPLCCPRP | -0.191
RRIRERPPRLPRPRPRPTTGPRP | -0.0235
RRIRWRPPRLPRPRPRPYFSPRP | -0.722
RRIRPRPPRLPRPRPRPSFSPRP | -0.578
RRIRCRPPRLPRPRPRPTEFPRP | -0.0561
RRIRARPPRLPRPRPRPQWYPRP | -0.523
RRIRNRPPRLPRPRPRPHIGPRP | -0.0161
RRIRQRPPRLPRPRPRPSHVPRP | -0.367
RRIRIRPPRLPRPRPRPLMKPRP | -0.232
RRIRSRPPRLPRPRPRPASKPRP | 0.019
RRIRGRPPRLPRPRPRPVYTPRP | 0.00198
RRIRARPPRLPRPRPRPVDHPRP | -0.0253

Sequence | shrunken log2 fold change
RRIRKRPPRLPRPRPRPATKPRP | 0.253
RRIRGRPPRLPRPRPRPDVCPRP | 0.181
RRIRWRPPRLPRPRPRPSNSPRP | -0.498
RRIRFRPPRLPRPRPRPVYVPRP | -0.93
RRIRKRPPRLPRPRPRPVVNPRP | 0.000998
RRIRPRPPRLPRPRPRPVWFPRP | 0.0968
RRIRYRPPRLPRPRPRPNAMPRP | -0.166
RRIRARPPRLPRPRPRPDCIPRP | 0.446
RRIRSRPPRLPRPRPRPDEWPRP | -0.00195
RRIRIRPPRLPRPRPRPLQTPRP | 0.0711
RRIRQRPPRLPRPRPRPAALPRP | 0.247
RRIRYRPPRLPRPRPRPQYVPRP | -0.0294
RRIRNRPPRLPRPRPRPRMPPRP | -0.0444
RRIRGRPPRLPRPRPRPRQMPRP | -0.0496
RRIRMRPPRLPRPRPRPPPAPRP | 2.14
RRIRYRPPRLPRPRPRPYFKPRP | -1.83
RRIRQRPPRLPRPRPRPMQAPRP | 0.116
RRIRFRPPRLPRPRPRPHYSPRP | -0.65
RRIRMRPPRLPRPRPRPKIKPRP | 0.248
RRIRERPPRLPRPRPRPTAWPRP | 0.378
RRIRRRPPRLPRPRPRPYICPRP | -0.452
RRIRERPPRLPRPRPRPIVHPRP | -0.355

Sequence | shrunken log2 fold change
RRIRKRPPRLPRPRPRPVENPRP | 0.198
RRIRRRPPRLPRPRPRPIPGPRP | 0.292
RRIRERPPRLPRPRPRPNGEPRP | -0.0424
RRIRMRPPRLPRPRPRPWCDPRP | 0.274
RRIRQRPPRLPRPRPRPAFPPRP | 0.0799
RRIRIRPPRLPRPRPRPFGNPRP | -0.118
RRIRARPPRLPRPRPRPTVKPRP | 0.143
RRIRDRPPRLPRPRPRPKINPRP | -0.389
RRIRKRPPRLPRPRPRPEKGPRP | -0.00382
RRIRPRPPRLPRPRPRPHCDPRP | 0.22
RRIRHRPPRLPRPRPRPEVMPRP | -0.0878
RRIRGRPPRLPRPRPRPPPFPRP | 0.887
RRIRQRPPRLPRPRPRPAEGPRP | 0.045
RRIRTRPPRLPRPRPRPALLPRP | 0.226
RRIRHRPPRLPRPRPRPPGYPRP | 0.0632
RRIRVRPPRLPRPRPRPGFKPRP | -0.0945
RRIRLRPPRLPRPRPRPEMVPRP | 0.201
RRIRMRPPRLPRPRPRPECSPRP | 0.333
RRIRGRPPRLPRPRPRPFMHPRP | 0.416
RRIRNRPPRLPRPRPRPFTAPRP | 0.613
RRIRSRPPRLPRPRPRPEGQPRP | 0.193
RRIRIRPPRLPRPRPRPETYPRP | -0.263

Sequence | shrunken log2 fold change
RRIRARPPRLPRPRPRPNQSPRP | 0.0591
RRIRQRPPRLPRPRPRPALGPRP | 0.563
RRIRMRPPRLPRPRPRPSIGPRP | -0.00737
RRIRPRPPRLPRPRPRPRCKPRP | 0.215
RRIRFRPPRLPRPRPRPGTRPRP | 0.208
RRIRRRPPRLPRPRPRPNTVPRP | -0.107
RRIRVRPPRLPRPRPRPMEDPRP | 0.0593
RRIRYRPPRLPRPRPRPWGMPRP | -0.364
RRIRERPPRLPRPRPRPRHQPRP | -0.164
RRIRSRPPRLPRPRPRPENWPRP | -0.0386
RRIRQRPPRLPRPRPRPQMAPRP | -0.065
RRIRKRPPRLPRPRPRPEWTPRP | 0.0364
RRIRHRPPRLPRPRPRPEWKPRP | -0.00613
RRIRGRPPRLPRPRPRPHNKPRP | -0.09
RRIRVRPPRLPRPRPRPNHYPRP | -0.501
RRIRNRPPRLPRPRPRPQEWPRP | -0.00211
RRIRKRPPRLPRPRPRPKTVPRP | 0.355
RRIRGRPPRLPRPRPRPEERPRP | 0.55
RRIRSRPPRLPRPRPRPWQSPRP | 0.143
RRIRFRPPRLPRPRPRPFGDPRP | -0.19
RRIRDRPPRLPRPRPRPISDPRP | 0.0148
